Measurements as given in US20130058955A1.

Experiments:
[1] = target: K11 polyubiquitin linkages in 293T cell lysates (human) (UniProt P0CG48); assay: IP from 293T lysate (empty vector), 7 M urea, mass spec AQUA; input 1085 pmol
[2] = target: K48 polyubiquitin linkages in 293T cell lysates (human) (UniProt P0CG48); assay: IP from lysate of 293T cells over-expressing LUBAC, 7 M urea, mass spec AQUA; input 12420 pmol
[3] = target: K63-linked diubiquitin (Boston Biochem) (human) (UniProt P0CG48); assay: western blot, IgG 1 µg/mL, two-fold dilutions of K63-linked diubiquitin 1 µg to 16 ng

Row | pmol of ubiquitin linkage in the immunoprecipitate [1] [pmol] | pmol of ubiquitin linkage in the immunoprecipitate [2] [pmol] | limit of detection [3] [ng] | Substance
1 | 0 | 1 | – | isotype control IgG (unrelated human kappa IgG1 antibody)
2 | – | – | 62 | Apu3.A8 anti-K63 IgG (antibody)
